# From PMC3958441, “Isl1 and Pou4f2 Form a Complex to Regulate Target Genes in Developing Retinal Ganglion Cells” (PLoS ONE, 2014)
# T1: Pou4f2, full-length, His-tagged (mouse, UniProt Q63934 1-411)
# T1 construct: Pou4f2 (Brn3b), mouse, full-length coding region in pET-28a(+); 411 a.a; also called Brn3b; source: E. coli, in lysate (pull-down); purified on His SpinTrap columns (EMSA); not shown: His tag, C-terminal, kept
# T1 sequence (looked up): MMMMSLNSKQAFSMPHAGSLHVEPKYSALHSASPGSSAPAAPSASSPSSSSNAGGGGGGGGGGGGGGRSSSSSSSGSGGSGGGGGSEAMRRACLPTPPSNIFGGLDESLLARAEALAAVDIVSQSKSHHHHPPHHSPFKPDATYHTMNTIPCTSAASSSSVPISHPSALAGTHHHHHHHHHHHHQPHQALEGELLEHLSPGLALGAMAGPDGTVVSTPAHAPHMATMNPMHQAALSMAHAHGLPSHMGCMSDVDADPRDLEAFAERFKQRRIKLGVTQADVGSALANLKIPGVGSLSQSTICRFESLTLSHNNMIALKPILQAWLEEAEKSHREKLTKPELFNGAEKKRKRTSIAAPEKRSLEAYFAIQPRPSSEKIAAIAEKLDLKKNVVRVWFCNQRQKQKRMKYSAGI
# T2: Pou4f2 (Brn3b) (mouse, UniProt Q63934 1-411)
# T2 sequence: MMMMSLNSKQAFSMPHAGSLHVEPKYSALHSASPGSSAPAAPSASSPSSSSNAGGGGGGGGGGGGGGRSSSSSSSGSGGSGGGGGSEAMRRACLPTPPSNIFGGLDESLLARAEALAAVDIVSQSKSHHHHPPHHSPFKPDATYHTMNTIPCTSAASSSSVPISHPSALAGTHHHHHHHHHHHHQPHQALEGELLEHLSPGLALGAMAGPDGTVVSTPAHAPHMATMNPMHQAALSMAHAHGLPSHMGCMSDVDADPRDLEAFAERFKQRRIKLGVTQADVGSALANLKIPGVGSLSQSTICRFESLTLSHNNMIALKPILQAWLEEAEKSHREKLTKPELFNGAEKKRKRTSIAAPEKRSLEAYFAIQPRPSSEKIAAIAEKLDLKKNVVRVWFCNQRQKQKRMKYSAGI
# T3: Isl1 (mouse, UniProt P61372 1-349)
# T3 sequence: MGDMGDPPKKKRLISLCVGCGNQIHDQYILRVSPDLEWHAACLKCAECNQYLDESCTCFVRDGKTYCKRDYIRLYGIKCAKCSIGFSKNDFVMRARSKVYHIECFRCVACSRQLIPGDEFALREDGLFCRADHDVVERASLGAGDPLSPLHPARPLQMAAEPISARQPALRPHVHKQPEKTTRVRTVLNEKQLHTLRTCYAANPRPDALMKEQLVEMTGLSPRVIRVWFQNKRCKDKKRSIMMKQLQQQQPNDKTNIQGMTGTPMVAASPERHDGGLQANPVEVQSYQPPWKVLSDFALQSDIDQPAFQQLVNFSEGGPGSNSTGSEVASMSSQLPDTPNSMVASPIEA
# T4: Pou4f2D5 (mouse, UniProt Q63934 125-411)
# T4 sequence: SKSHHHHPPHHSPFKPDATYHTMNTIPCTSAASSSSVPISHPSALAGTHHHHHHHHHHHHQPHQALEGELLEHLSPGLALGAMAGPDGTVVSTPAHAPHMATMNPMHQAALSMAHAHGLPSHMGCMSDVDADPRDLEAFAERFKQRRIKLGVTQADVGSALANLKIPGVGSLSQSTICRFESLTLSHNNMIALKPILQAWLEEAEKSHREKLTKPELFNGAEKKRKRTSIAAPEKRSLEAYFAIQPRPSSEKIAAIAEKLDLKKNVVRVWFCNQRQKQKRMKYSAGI
# T5: Isl1 expressed in HEK 293 cells (mouse, UniProt P61372 1-349)
# T5 sequence (looked up): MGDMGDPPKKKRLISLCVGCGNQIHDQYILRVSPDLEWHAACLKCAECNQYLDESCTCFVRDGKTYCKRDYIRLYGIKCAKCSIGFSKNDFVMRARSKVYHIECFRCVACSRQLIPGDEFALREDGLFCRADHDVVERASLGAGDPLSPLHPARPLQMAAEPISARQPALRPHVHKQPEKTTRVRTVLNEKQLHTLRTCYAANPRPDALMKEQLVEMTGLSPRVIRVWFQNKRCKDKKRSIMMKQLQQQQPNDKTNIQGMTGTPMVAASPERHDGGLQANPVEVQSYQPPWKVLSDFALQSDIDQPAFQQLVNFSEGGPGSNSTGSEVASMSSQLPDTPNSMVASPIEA
# B1: Pou4f2D5 (a.a. 125-411) (domain or fragment, mouse, UniProt Q63934 125-411, looked up)
# chain: SKSHHHHPPHHSPFKPDATYHTMNTIPCTSAASSSSVPISHPSALAGTHHHHHHHHHHHHQPHQALEGELLEHLSPGLALGAMAGPDGTVVSTPAHAPHMATMNPMHQAALSMAHAHGLPSHMGCMSDVDADPRDLEAFAERFKQRRIKLGVTQADVGSALANLKIPGVGSLSQSTICRFESLTLSHNNMIALKPILQAWLEEAEKSHREKLTKPELFNGAEKKRKRTSIAAPEKRSLEAYFAIQPRPSSEKIAAIAEKLDLKKNVVRVWFCNQRQKQKRMKYSAGI
# notes: Pou4f2, mouse, a.a; 125-411, POU and homeo domains intact; source: E. coli, in lysate (pull-down); purified on His SpinTrap columns (EMSA); not shown: His tag, C-terminal, kept
# B2: Isl1D4 (a.a. 146-349) (domain or fragment, mouse, UniProt P61372 146-349, looked up)
# chain: PLSPLHPARPLQMAAEPISARQPALRPHVHKQPEKTTRVRTVLNEKQLHTLRTCYAANPRPDALMKEQLVEMTGLSPRVIRVWFQNKRCKDKKRSIMMKQLQQQQPNDKTNIQGMTGTPMVAASPERHDGGLQANPVEVQSYQPPWKVLSDFALQSDIDQPAFQQLVNFSEGGPGSNSTGSEVASMSSQLPDTPNSMVASPIEA
# notes: Isl1, mouse, a.a; 146-349; source: E. coli, in lysate (pull-down); purified on His SpinTrap columns (EMSA); not shown: His tag, C-terminal, kept
# B3: CBRN3(M) (dsDNA)
# DNA 1: GATCTCTCCTGCGCGGTTGACTACCCCCGGAT
# DNA 2: GATCCGGGGGTAGTCAACCGCGCAGGAGAGAT
# B4: Isl1D3 (a.a. 170-349) (domain or fragment, mouse, UniProt P61372 170-349, looked up)
# chain: LRPHVHKQPEKTTRVRTVLNEKQLHTLRTCYAANPRPDALMKEQLVEMTGLSPRVIRVWFQNKRCKDKKRSIMMKQLQQQQPNDKTNIQGMTGTPMVAASPERHDGGLQANPVEVQSYQPPWKVLSDFALQSDIDQPAFQQLVNFSEGGPGSNSTGSEVASMSSQLPDTPNSMVASPIEA
# notes: Isl1, mouse, a.a; 170-349, only the homeodomain and the C terminal region, none of the Lim domains; source: E. coli, in lysate (pull-down); purified on His SpinTrap columns (EMSA); not shown: His tag, C-terminal, kept
# B5: EBF3(M) (dsDNA)
# DNA 1: GTGCGTTGCTATTTTCGTTGCTCGGGAAAA
# DNA 2: TTTTCCCGAGCAACGAAAATAGCAACGCAC
# B6: Isl1, full-length, His-tagged (natural protein, mouse, UniProt P61372 1-349, looked up)
# chain: MGDMGDPPKKKRLISLCVGCGNQIHDQYILRVSPDLEWHAACLKCAECNQYLDESCTCFVRDGKTYCKRDYIRLYGIKCAKCSIGFSKNDFVMRARSKVYHIECFRCVACSRQLIPGDEFALREDGLFCRADHDVVERASLGAGDPLSPLHPARPLQMAAEPISARQPALRPHVHKQPEKTTRVRTVLNEKQLHTLRTCYAANPRPDALMKEQLVEMTGLSPRVIRVWFQNKRCKDKKRSIMMKQLQQQQPNDKTNIQGMTGTPMVAASPERHDGGLQANPVEVQSYQPPWKVLSDFALQSDIDQPAFQQLVNFSEGGPGSNSTGSEVASMSSQLPDTPNSMVASPIEA
# notes: Isl1, mouse, full-length coding region in pET-28a(+); 349 a.a; source: E. coli, in lysate (pull-down); purified on His SpinTrap columns (EMSA); not shown: His tag, C-terminal, kept
# B7: Isl1D5 (a.a. 74-349) (domain or fragment, mouse, UniProt P61372 74-349, looked up)
# chain: LYGIKCAKCSIGFSKNDFVMRARSKVYHIECFRCVACSRQLIPGDEFALREDGLFCRADHDVVERASLGAGDPLSPLHPARPLQMAAEPISARQPALRPHVHKQPEKTTRVRTVLNEKQLHTLRTCYAANPRPDALMKEQLVEMTGLSPRVIRVWFQNKRCKDKKRSIMMKQLQQQQPNDKTNIQGMTGTPMVAASPERHDGGLQANPVEVQSYQPPWKVLSDFALQSDIDQPAFQQLVNFSEGGPGSNSTGSEVASMSSQLPDTPNSMVASPIEA
# notes: Isl1, mouse, a.a; 74-349; source: E. coli, in lysate (pull-down); purified on His SpinTrap columns (EMSA); not shown: His tag, C-terminal, kept
# B8: SBRN3(M) (dsDNA)
# DNA 1: GCACACGACCCAGCGCGTTGACAACCGGGCTG
# DNA 2: GCAGCCCGGTTGTCAACGCGCTGGGTCGTGTG
# B9: EBF3(W) (dsDNA)
# DNA 1: GTGCGTTAATATTTTAATTAATCGGGAAAA
# DNA 2: TTTTCCCGATTAATTAAAATATTAACGCAC
# B10: IRX6(W) (dsDNA)
# DNA 1: GTACTACTAATTAATTAATTGCAAACATTTC
# DNA 2: GGAAATGTTTGCAATTAATTAATTAGTAGTA
# B11: IRX6(M) (dsDNA)
# DNA 1: TACTACTGCTTCGTTGCTTGCAAACATTTC
# DNA 2: GGAAATGTTTGCAAGCAACGAAGCAGTAGTA
# B12: Pou4f2 expressed in HEK 293 cells (natural protein, mouse, UniProt Q63934 1-411, looked up)
# chain: MMMMSLNSKQAFSMPHAGSLHVEPKYSALHSASPGSSAPAAPSASSPSSSSNAGGGGGGGGGGGGGGRSSSSSSSGSGGSGGGGGSEAMRRACLPTPPSNIFGGLDESLLARAEALAAVDIVSQSKSHHHHPPHHSPFKPDATYHTMNTIPCTSAASSSSVPISHPSALAGTHHHHHHHHHHHHQPHQALEGELLEHLSPGLALGAMAGPDGTVVSTPAHAPHMATMNPMHQAALSMAHAHGLPSHMGCMSDVDADPRDLEAFAERFKQRRIKLGVTQADVGSALANLKIPGVGSLSQSTICRFESLTLSHNNMIALKPILQAWLEEAEKSHREKLTKPELFNGAEKKRKRTSIAAPEKRSLEAYFAIQPRPSSEKIAAIAEKLDLKKNVVRVWFCNQRQKQKRMKYSAGI
# Assays:
# [1] = molecular target: B6; experiment: native gel or EMSA; EMSA with purified His-tagged proteins (200 ng each) and radiolabelled DNA probes (SBRN3, CBRN3; Ebf3 and Irx6 for Isl1 with Pou4f2D5); protein-protein complex read from a slower migrating ternary complex on DNA; 20 mM Tris-HCl pH 7.5, 0.05 M NaCl, 10 mM DTT, 1 mM EDTA, 5% glycerol, 4 C; conditions: both partners purified
# [2] = molecular target: T1, Pou4f2, full-length, His-tagged; experiment: as above; conditions: both partners purified
# Pou4f2 (Brn3b) = molecular target: T2, Pou4f2 (Brn3b); experiment: EMSA; EMSA: 20 mM Tris-HCl pH 7.5, 50 mM NaCl, 10 mM DTT, 1 mM EDTA, 5% glycerol, 200 ng dI/dC, 200 ng each protein in 20 ul, 4 C, 30 min; 8% PAGE, 1x TBE, 4 C; conditions: protein: recombinant; tags: His (C-terminal, pET-28a); (radiolabel, Klenow fill-in); 5' overhang 1 nt at both ends before fill-in
# Isl1 = molecular target: T3, Isl1; experiment: as above; conditions: protein: recombinant, tags: His (C-terminal, pET-28a)
# Pou4f2D5 = molecular target: T4, Pou4f2D5; experiment: as above; conditions: protein: recombinant, tags: His (C-terminal)
# [3] = molecular target: T5, Isl1 expressed in HEK 293 cells; experiment: cell-based or functional assay
# [4] = (radiolabel, Klenow fill-in), 5' overhang 1 nt at both ends before fill-in
# [5] = (radiolabel, Klenow fill-in), one end blunt, lower strand 5' overhang 1 nt before fill-in
binder,measurement,setting,value
B1,binding result,[1],binds
B2,binding result,[2],binds
B3,binding result,Pou4f2 (Brn3b),no binding
same,binding result,Isl1; [4],no binding
B4,binding result,[2],binds
B5,binding result,"Pou4f2D5; (radiolabel, Klenow), blunt",no binding
same,binding result,"Isl1; (radiolabel, Klenow), blunt",no binding
B6,binding result,[2],binds
B7,binding result,[2],binds
B8,binding result,Pou4f2 (Brn3b),no binding
same,binding result,Isl1; [4],no binding
B9,binding result,"Pou4f2D5; (radiolabel, Klenow), blunt",binds
same,binding result,"Isl1; (radiolabel, Klenow), blunt",binds
B10,binding result,Pou4f2D5; [4],binds
same,binding result,Isl1; [4],binds
B11,binding result,Pou4f2D5; [5],no binding
same,binding result,Isl1; [5],no binding
B12,"luciferase reporter with the CBRN3 motif in HEK 293 cells, both expression constructs co-transfected, fold increase from the control (each factor alone about 2.5 fold)",[3],~3.5 fold
